Experiment: soluble on expression in E. coli; label from the status in PepcDB or PDB records

Sequence | soluble on expression in E. coli
MSLKINGEVTFKNNQVNYDENAITNLKLSGSDAKKENIKEVYMDLTNVGGPNKVLMDLNLLKDNSLSQSIGINDNVVAGEKEIPVTIVDKNGENHKAKGILTVKSKVGVGPLDFGFDESRIYFTVTDRFFNGDKNNDDPHGNNYDKKNPYTYHGGDLKGLTDKISYLKELGINTIWITPIVENTDFNQMFSQGKTQYSCHGYWAKDFEKLDPHLGTMDDLKTLIDTAHDSGIKIMVDVVLNHAGYGMKNKDNSGANNSPTEEDIAKFKGMFRENPGNDFITQESAGLPDFKTEDPEVREKLIEWQTGWIERSKTEKGNTIDYFRVDTVKHVDNTTWKAFKNKLTEINPSFKTIGEYFGADINNDGGQLQNGQMDALLDFGYKGKARDFVNGNIEGTSAYLDDRASKISNTNLMGQFLSSHDEDGFLKTVGDDLGKQMLAASLQITDKGIPVIYYGEELGMSGWNGFEQGDQNRYDMDFERLNDPKYKKVHDHYEKLLNIRKEYSKIFSKGNRKTIAGNNEEGYSVVLRSYNGKEITPMNLSENNEEKNITNGQNLFVVLNTKNEDKDISFKTNFKEGEKVKDLYSGNEYSIGKDGKVTVKVPSKEEGGTAILALKNREGHHHHHH | soluble
MSLKITAARVIITCPGRNFVTLKIETDQGVYGIGDATLNGRELSVVAYLAGTRRALPHRHGPAPHRGHLAVCLSRAYWRAPARLTMRAIAAVDMALWDIKAKMAGMPLYQLLGGRSRDGIMVYGHANGSDIAETVEAVGHYIDMGYKAIRAQTGVPGIKDAYGVGRGKLYYEPADASLPSVTGWDTRKALNYVPKLFEELRKTYGFDHHLLHDGHHRYTPQEAANLGKMLEPYQLFWLEDCTPAENQEAFRLVRQHTVTPLAVGEIFNTIWDAKDLIQNQLIDYIRATVVGAGGLTHLRRIADLASLYQVRTGCHGATDLSPVTMGCALHFDTWVPNFGIQEYMRHTEETDAVFPHDYWFEKGELFVGETPGHGVDIDEELAAKYPYKPAYLPVARLEDGTMWNWEGHHHHHH | not soluble
MSLKITNVQTQKVLVPLKKPLITAIHKTDSVGVVIVKIETDTGLVGENYVFALNKDRLDVFDAMIKSLTQFLIGNNPVYVEKIWQQMWQDCNPVGQKGIAISAISAIDTALWDLIGKQANMPLYQVFGACRDKVKTYASSGLWLSSNIDELIEEAHGFIDQGFRSMKLRLGKPDLKEDVERARALRASVGDDIEILTDANQSLTPRQAIALGRQLEDLNIAWLEEPVPAHDLAGHNRVLEAINIPVASGETDYTRFGMKDMLDHKAVDILMPDLQRIGGLSEFRKAAALASAYHIPVSSHIFTEQSLSIAGSADNCISVEHVDWFAPLYQEKIVINDGFIDMPMGAGIGFNFDYDFIDQNLIEGHHHHHH | soluble
MSLKKVTLLVLDGFGVGAMADCEKVKPEDVNANTYKHLREAVDIHIPTLYQLGLGNIVDHLDTARAAYGRCDLAHHGADTFMGHQELMGSKPGVPQKRLMSEVGATIKKNLEKHGYDVRDPVEGAPVLLVNEAVVVGDNLESEVGNIINVVGDFRKLSFEQTIEVGKVVRSSVDTSRVIVYGNKEKTSIDLILSTIKERHPGQWGVDSPKANVYGEGYQVLHLGYGVDYEKQFAHLAEKQRLPVYRIGKTADVIQASGYHNPVVSTRKVLEVYQHEYSKSERDSVFLVNVQETDLAGHKEDCLWYKEVIEEVDRFLASFIDELDEEDLLIITADHGNDPTIGHSNHTREQTPVIIVGPQVRPISIGTRQTMADLAATMADYMGVAPPQYGTSFLHQILREGHHHHHH | soluble
MSLKKYMGIIVDAISRRQFKGEITVENGKIIRVEEKEHDNEQYILPGLVDAHVHIESSMTVPSVFARMAVAKGTVAVVSDPHEIANVMGEEGIEFMLEDSKKSPLKVYFGVPSCVPATPFESSGAVLDINAVDRLLAKDDLHYLSEMMNFPGVILEFPDVMAKLESARKHGKVIDGHAPGLRGADLQKYIGAGISTDHECFEYEEAREKIELGMKILIREGSSARNFETLYPLIDEYPDHVMLCTDDSHPDTLIYEGHIDKLIRRGQEKGLDIYNLIRTAVFNPVEHYGLNVGLLREGDPADFIIVDNLKSFNILSTFIDGECVYENGKVLFPLEKVPAKNVFNRNKISIDDVKLVPPAGAIQEQTTEKGIKKIRVIVANDGELVTGQELIVPKIENGNLVSDPERDILKMVVLSRYSDDPVRIGFIKNIGLEKGAIASSIAHDSHNIIAVGATDEDIVETVNRLIKNKGGIAVGTAENLLDLPLEVAGLMSTLEGEEVASRYHLLNEEARKLGTSLESPFMTLAFMSLLVIPELKLGDKGLFDVTKFEFVDLFADEGHHHHHH | soluble
MSLKLEIIAIGGYEEVGRNMTAVNVDGEIIILDMGIRLDRVLIHEDTDISKLHSLELIEKGIIPNDTVMKNIEGEVKAIVLSHGHLDHIGAVPKLAHRYNAPIIGTPYTIELVKREILSEKKFDVRNPLIVLNAGESIDLTPNITLEFIRITHSIPDSVLPVLHTPYGSIVYGNDFKFDNFPVVGERPDYRAIKKVGKNGVLCFISETTRINHEGKTPPEIIASGLLKNDLLAADNDKHGIIVTTFSSHIARIKSITDIAEKMGRTPVLLGRSMMRFCGIAQDIGLVKFPEDLRIYGDPSSIEMALKNIVKEGKEKYLIIATGHQGEEGAVLSRMATNKTPYKFEKYDCVVFSADPIPNPMNAAQRYMLESRLKLLGVRIFKGAHVSGHAAKEDHRDMLRWLNPEHIIPSHGDFNLTAEYTKLAEEEGYRLGEDVHLLRNGQCLSFEREGHHHHHH | soluble
MSLKLLAIAPYEGLRQLFLRVAEEEGLSIKAEVGNLDEGVRLAKKAADESFDVIISRGGTATLIQQHLSIPVVEIEISGYDLLKNLLFLKEYPDKKAIVGFPQITNGVQLINELLDVSFSTVTIHSEGEAIHALKELKAQGFESVLGDVITVNEAERLGMNGFLLSSGEESVRKAFNQAKRVVKALGRDRLNYELPLSYLHEQERGLVLLDQNNDVCFVNEFAKKFQLMEFINDHSFMRQLRTPRETGAFSWSDGHSVWYIRYKAIGNQGLAIEFAQLNERVLNDHPKEGHHHHHH | soluble
MSLKPFGLFAICVAFAGCGDTSWWSKNDDPELKSEQIRKLIPSRVHDRQSWANDINDIMEKLKIPKTKDNVCSVVAIVDQESNFVANPVVAGLGEKAVKEVSTRLNEKFEEKLGTTIGGQVAGYFEDVLKNQPTPDDNYMSQMRRVRTEKDLDVLYRQIFDYMASHYHVSALTGAAKLVGQDIAEKMNPITTLGSMQVNIVYAKENKRVKLQSVNNLRDDLYTQYGGLYYGIHRLMLYQTSYDKPIYRFADYNSGMYSSRNAALQSMLNKLGDEQLTEDGDLLLYNKDGSIQSTRSSSEKALIKIFTLNNVLLTPNQIRTDLKQEKSQSFEQTPTYIAITKLYQKQTGKEAPYAMMPQVIISGPKLSRDYNTNWYASRVNGRYQTCMQRAKRIKEGHHHHHH | soluble
MSLKRDELKLDYQRHQFYEYFNSIFNYDILDASISENIYLLRKTTDKLFYIEFENQLFETVMFLSMKTLVLDINSFSKEIGNKSEAYEQYIQQIKEENGINNFFDRYPYLLKQINREVRLIEESYSLLFDRFLKDLSELRSCFNITEPLSNVEFSLGDSHSQKQTVVKIEFKGKSIYYKPKSYDSYNILLELISLLKSNNIPSFSLPESLIKADYCWQLGVDYINSNNDEVKRIYFKYGVLAAFSEIFSITDLHMENVIVSGGDLYLIDVETFFQRKLNVQTNNFEGITVDTYQRIYETSLSNGLFPVQFEKNSAPNISGISGKGGKRKKGKYELINKNRGDMKLVKTDYFQEDSYNIPTLNEKMVEPLDYANEVIAGFRECYTFLMTQRAKVKKILYGFPKLRTRAIFRNTSDYGKFLQASTNPKYLFSEKKRENLFSILYESKHIEQFIVDSEIKDLMNGDIPYFSMDPNGNVYNSLGTVIGNLGKTTSLFDNIATLNDERMKFTCELIGIVLKKPIKHWERKDGKSYYFPSISSKQSFNEEILRQREGHHHHHH | soluble
MSLKRLIMATMVTAILASSTVWAADNAPVAAQQQTQQVQQTQKTAAAAERISEQGLYAMRDVQVARLALFHGDPEKAKELTNEASALLSDDSTEWAKFAKPGKKTNLNDDQYIVINASVGISESYVATPEKEAAIKIANEKMAKGDKKGAMEELRLAGVGVMENQYLMPLKQTRNALADAQKLLDKKQYYEANLALKGAEDGIIVDSEALFVNEGHHHHHH | soluble
MSLKRMVNVLFAGVLAMTVLSCGEEKKGYTLNGEISDVKDGMVYLKKYQDKSFIAVDSAVITDGTFKFEGVCTEPLAYGLTTFRDSKRPLVFFLDNEKMQLKMNESEKILTVTGSAINDLYAQNAPLTRQDGYSIDSLVAVHPASAVTPYFIVKDFAYKLNLEEMKALRAKLDASLDETMYVSQIDGFIKRMKDIQVGAVAPDFTLPDVDGNPVTLSGLRGKYVLIDFWASWCPDCRKENPNIVAAWNKYKDKNFTILGVSLDRKKEPWLAAIEKDQLAWTHVSDLKDWKSDAAVQYAIRWIPMNFLLDPNGVILAVGLEGEALQQKLDEVLKEGHHHHHH | not soluble
MSLKRVSVIICMFLYFVLTDKAHAQRCLPGTKGLRITAGMTDGFHTADKRNELGYHFGMGMDRYVNGCHKWVFSGEYLQKYYPYKDIRVPVSQFTAEGGYYYNFLSDANKVFLCYAGGSVLAGYETVNWGTGMLFDGSRLCVGDAFVYGGAVSLEIETYLANQVVLLFHARERCLWGNDSGHFHFQFGVGLKIILNEGHHHHHH | not soluble
MSLKSIAQEHDCLLIDLDGTVFCGRQPTGGAVQSLSQVRSRKLFVTNNASRSADEVAAHLCELGFTATGEDVVTSAQSAAHLLAGQLAPGARVLIVGTEALANEVAAVGLRPVRRFEDRPDAVVQGLSMTTGWSDLAEAALAIRAGALWVAANVDPTLPTERGLLPGNGSMVAALRTATGMDPRVAGKPAPALMTEAVARGDFRAALVVGDRLDTDIEGANAAGLPSLMVLTGVNSAWDAVYAEPVRRPTYIGHDLRSLHQDSKLLAVAPQPGWQIDVGGGAVTVCANGDVDDLEFIDDGLSIVRAVASAVWEARAADLHQRPLRIEAGDERARAALQRWSLMRSDHPVTSVGTQEGHHHHHH | not soluble
MSLKSVIIGTAGHIDHGKTSLIKALNGFEGDSLKEEQERQITINLSFSNLKLKDKNISFIDVPGHKDLVKTMVSGAFGFSVCLFVVDINEGLKEQSLEHLEILKILDIKNIILVLSKCDLCENIEQKSVEILEELKNLDYPILKVFHTSIKNNQGIEELKNYLYTIENKENDEELIFHYYIDRVFSLKGIGTVVTGSLNEGSITLNEKIICLDTQKELIVKNIQNHDTNLEQIKACNRVALSLNCDYKELKKGYLLSKKGYFKAFKECDALVKAKNLQNSKMIFCVGSRQIECKINILKKLENDEFFVHFSFDKNVFLSFDEAFILLQNNRVIGGGKVLNPLSEPLKKEQKNKFLMFLKNKDFKAAFSFLKDAHKYGFGLLSSYQRFKLSHQKALKLAKELNQVFVDEKNLNVYHLQSLEEIKNFIKFILEKNPYAMLSAHSLALRITWASENFCELGLKEMSNLLDFQNGIYFKKGIDFEKLQEKNNNQMYEILKKQGIKPEAPYNLYDFLELDREGHHHHHH | soluble
MSLKTITFFKRVLASAALVSVCGFACATNNGKQFIHNDTMEGGKLVCREIYAMNDAASGILNPVKMYKYSYDTDQQKTVKSTYAWNIFKNTWETESRTVISRYETETSVEYSVWNKEKGSFDLSKKYIYITDNNNQLIAQYAYKMNSRTNQWILEKDALTPIYENIYATTREGHHHHHH | soluble
MSLKTSHLKEVPETLAMRESLRDRCAQVAAKLDRSHPMTKDEMEQISRRMLEEADLPESYLGWVMVMISSEFWADALASVPPERRLFLLPHCLKHAEGCPAEYDQFGMNCKECGACSIADFRSIAEDMGYRVLVAEGSPVVMKIIVGGYVDAVVGVACLNVLEKAIDKVLLAGIPCMAVPLLSSDCRNTKVDEPWVEQMIRTPYKPAAAKTKSYVHLMRAAGLLFEDTLFERLAEGHHHHHH | not soluble
